Laboratory results: paper PMC11768756

B1: 1D4 anti-idiotypic Fab (Fab, V domains shown)
VH: QVQLVESGGGLVQPGGSLRLSCAASGFTFSSSGLHWVRQAPGKGLEWVSGIDSSSSTTYYADSVKGRFTISRDNSKNTLYLQMNSLRAEDTAVYYCARYYFDVWGQGTLVTVSS
VL: DIELTQPPSVSVAPGQTARISCSGDSIGTYAYWYQQKPGQAPVLVIYADDNRPSGIPERFSGSNSGNTATLTISGTQAEDEADYYCSSWATDNAPVFGGGTKLTVL
B2: 1A6 anti-idiotypic Fab (Fab, V domains shown)
VH: QVQLVESGGGLVQPGGSLRLSCAASGFTFSSYAMNWVRQAPGKGLEWVSLISGSGSSTYYADSVKGRFTISRDNSKNTLYLQMNSLRAEDTAVYYCARFHTHGGYFDIWGQGTLVTVSS
VL: DIALTQPASVSGSPGQSITISCTGTSSDIGAYTYGSWYQQHPGKAPKLMIYGVNNRPSGVSNRFSGSKSGNTASLTISGLQAEDEADYYCASFDFSVSGVVFGGGTKLTVL

Molecular target: MK-1654 IgG (human)
Experiment: SPR; Biacore 8K+; MK-1654 IgG captured on a Protein A chip (about 110 RU); 1A6 or 1D4 Fab flowed at 0.4-128 nM, 60 s contact and 60 s dissociation, 30 µL/min; global 1:1 fit; KD = koff/kon; averages of three runs

Sequence of MK-1654 IgG (human) (heavy, as listed by the source, chain 1 of 2): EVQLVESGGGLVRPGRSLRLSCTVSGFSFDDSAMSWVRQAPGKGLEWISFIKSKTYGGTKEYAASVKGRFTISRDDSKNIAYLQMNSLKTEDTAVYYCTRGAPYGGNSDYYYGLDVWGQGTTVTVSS
Sequence of MK-1654 IgG (human) (light, as listed by the source, chain 2 of 2): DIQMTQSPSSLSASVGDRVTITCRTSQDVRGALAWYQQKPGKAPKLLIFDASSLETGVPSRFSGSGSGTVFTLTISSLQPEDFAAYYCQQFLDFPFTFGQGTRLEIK

Row | Binder | Kd [nM] | koff [s⁻¹] | kon [M⁻¹ s⁻¹]
1 | B1 | 3.75 | 0.013 | 3.5e+06
2 | B2 | 0.94 | 0.00628 | 6.67e+06
